Reference: patent US20260274948A1 (AUTOLUS, published 2026)

Molecular target: T1, TRBC2 (T-cell receptor beta constant region 2) (human, UniProt A0A5B9 1-129, limits assumed)
T1 construct: also called TCR beta-constant region 2
Assay: ELISA

T1 sequence (A0A5B9 1-129 limits assumed): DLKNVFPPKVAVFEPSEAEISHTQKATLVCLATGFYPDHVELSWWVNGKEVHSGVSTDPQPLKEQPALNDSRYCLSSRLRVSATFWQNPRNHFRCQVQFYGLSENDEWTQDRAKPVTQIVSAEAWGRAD

Binder | binding result
Jovi Hum 8 (antibody, V domains shown, H-AF 1 carries no back-mutation (Q3, V20, M48, R71, T73), i.e. the plain H-AF062256 graft; also called H-AF 1; H-AF1, 3aaz) VH: QVQLVQSGAEVKKPGASVKVSCKASGYTFTGYVMHWVRQAPGQGLEWMGFINPYNDDIQSNERFRGRVTMTRDTSISTAYMELSRLRSDDTAVYYCARGAGYNFDGAYRFFDFWGQGTMVTVSS VL: DIVMTQSPLSLPVTPGEPASISCRSSQRLVHSNGNTYLHWYLQKPGQSPRLLIYRVSNRFPGVPDRFSGSGSGTDFTLKISRVEAEDVGVYYCSQSTHVPYTFGQGTKLEIK | no binding
Jovi Hum 16 (antibody, V domains shown, also called H-AF 2) VH: QVQLVQSGAEVKKPGASVKVSCKASGYTFTGYVMHWVRQAPGQGLEWMGFINPYNDDIQSNERFRGRVTMTRDKSISTAYMELSRLRSDDTAVYYCARGAGYNFDGAYRFFDFWGQGTMVTVSS VL: DIVMTQSPLSLPVTPGEPASISCRSSQRLVHSNGNTYLHWYLQKPGQSPRLLIYRVSNRFPGVPDRFSGSGSGTDFTLKISRVEAEDVGVYYCSQSTHVPYTFGQGTKLEIK | no binding
Jovi Hum 17 (antibody, V domains shown, also called H-AF 3) VH: QVQLVQSGAEVKKPGASVKVSCKASGYTFTGYVMHWVRQAPGQGLEWMGFINPYNDDIQSNERFRGRVTMTSDTSISTAYMELSRLRSDDTAVYYCARGAGYNFDGAYRFFDFWGQGTMVTVSS VL: DIVMTQSPLSLPVTPGEPASISCRSSQRLVHSNGNTYLHWYLQKPGQSPRLLIYRVSNRFPGVPDRFSGSGSGTDFTLKISRVEAEDVGVYYCSQSTHVPYTFGQGTKLEIK | no binding
Jovi Hum 18 (antibody, V domains shown, also called H-AF 4) VH: QVQLVQSGAEVKKPGASVKVSCKASGYTFTGYVMHWVRQAPGQGLEWMGFINPYNDDIQSNERFRGRVTMTSDKSISTAYMELSRLRSDDTAVYYCARGAGYNFDGAYRFFDFWGQGTMVTVSS VL: DIVMTQSPLSLPVTPGEPASISCRSSQRLVHSNGNTYLHWYLQKPGQSPRLLIYRVSNRFPGVPDRFSGSGSGTDFTLKISRVEAEDVGVYYCSQSTHVPYTFGQGTKLEIK | no binding
Jovi Hum 19 (antibody, V domains shown, also called H-AF 5) VH: QVQLVQSGAEVKKPGASVKVSCKASGYTFTGYVMHWVRQAPGQGLEWIGFINPYNDDIQSNERFRGRVTMTRDTSISTAYMELSRLRSDDTAVYYCARGAGYNFDGAYRFFDFWGQGTMVTVSS VL: DIVMTQSPLSLPVTPGEPASISCRSSQRLVHSNGNTYLHWYLQKPGQSPRLLIYRVSNRFPGVPDRFSGSGSGTDFTLKISRVEAEDVGVYYCSQSTHVPYTFGQGTKLEIK | no binding
Jovi Hum 20 (antibody, V domains shown, also called H-AF 6) VH: QVQLVQSGAEVKKPGASVKVSCKASGYTFTGYVMHWVRQAPGQGLEWIGFINPYNDDIQSNERFRGRVTMTRDKSISTAYMELSRLRSDDTAVYYCARGAGYNFDGAYRFFDFWGQGTMVTVSS VL: DIVMTQSPLSLPVTPGEPASISCRSSQRLVHSNGNTYLHWYLQKPGQSPRLLIYRVSNRFPGVPDRFSGSGSGTDFTLKISRVEAEDVGVYYCSQSTHVPYTFGQGTKLEIK | no binding
Jovi Hum 26 (antibody, V domains shown, also called H-AF 12) VH: QVQLVQSGAEVKKPGASVKMSCKASGYTFTGYVMHWVRQAPGQGLEWMGFINPYNDDIQSNERFRGRVTMTSDKSISTAYMELSRLRSDDTAVYYCARGAGYNFDGAYRFFDFWGQGTMVTVSS VL: DIVMTQSPLSLPVTPGEPASISCRSSQRLVHSNGNTYLHWYLQKPGQSPRLLIYRVSNRFPGVPDRFSGSGSGTDFTLKISRVEAEDVGVYYCSQSTHVPYTFGQGTKLEIK | no binding
Jovi Hum 27 (antibody, V domains shown, also called H-AF 13) VH: QVQLVQSGAEVKKPGASVKMSCKASGYTFTGYVMHWVRQAPGQGLEWIGFINPYNDDIQSNERFRGRVTMTRDTSISTAYMELSRLRSDDTAVYYCARGAGYNFDGAYRFFDFWGQGTMVTVSS VL: DIVMTQSPLSLPVTPGEPASISCRSSQRLVHSNGNTYLHWYLQKPGQSPRLLIYRVSNRFPGVPDRFSGSGSGTDFTLKISRVEAEDVGVYYCSQSTHVPYTFGQGTKLEIK | no binding
